Test results as given in patent publication US20230340090A1.
Where a chain is given by its changes, count along the chain named.

T1: TP-25 peptide (human)
T1 sequence (peptide, biotinylated): VMDVFIPKPFRAFAF

T2: TP-24 peptide (human)
T2 sequence (peptide, biotinylated): REFFSQYGDVMDVFI

B1: ACI-7062-404D6-Ab2 (antibody, IgG3, V domains shown)
VH: QVTLKESGPGILQPSQTLSLTCSFSGFSLSTYGIGVGWIRQPSGKGLEWLAHIWWNDYKYYNTALKSRLTISKDTSNNRVFLKIASVDTADTATYYCARVYGNLYYFDYWGQGTTLTVSS
VL: DVLMTQTPLSLPVSLGDQASISCRSSQSIVHGSGNTYLEWYLQKPGQSPKLLIYKVSNRFSGVPDRFSGSGSGTDFTLRISRVEAEDLGVYYCFQGSHVPTFGAGTKLELKR
B2: ACI-7062-410H3-Ab1 (antibody, IgG1, V domains shown)
VH: DVQLVESGGGLVQPGGSRRLSCAASGFTFSSFGMHWVRQAPEKGLEWVAYIRSGSDIIYYADSVKGRFTISRDNPENTLFLQMTSLRSEDTAMYYCARSGTTVPFDYWGQGTSLTVSS
VL: DIVMTQSPSSLAMSVGQKVTMSCKSSQSLLNSGNQKNYLAWYQQKPGQSPELLLYFASTRASGVPDRFIGSGSGTDFTLTISSVQAEDLADYFCQQHYSIPLTFGAGTKLELKR
B3: ACI-7062-412A7-Ab1 (antibody, IgG2b, V domains shown)
VH: B2 VH
VL: B2 VL
B4: ACI-7062-412E12-Ab1 (antibody, IgG1, V domains shown)
VH: B2 VH with S31R
VL: B2 VL with N34D, T78S
B5: ACI-7062-415C4-Ab1 (antibody, IgG1, V domains shown)
VH: B1 VH with Y58N, N62K, R79Q, T92S, D108G
VL: B1 VL with G32S, S33T, R79K, H98R
B6: ACI-7062-416A11-Ab1 (antibody, IgG2a, V domains shown)
VH: B1 VH with P14S, Y58N, R79Q, T92A, D108G
VL: B1 VL with Q18R, G32S, R79K, H98R
B7: ACI-7062-401A2-Ab2 (antibody, IgG1, V domains shown)
VH: B2 VH with S31R
VL: B2 VL with N34D, T78S

What follows are binders tested against T1, TP-25 peptide (human) (assay: indirect ELISA, biotinylated 15-mer on streptavidin plate).
B1 showed an OD (O.D. (405 nm)) of 0.9.
For B2, the OD (O.D. (405 nm)) was 0.8.
Work on B3 yielded an OD (O.D. (405 nm)) of 1.4.
Binder B4 has an OD (O.D. (405 nm)) of 1.2.
B5 was tested, and the OD (O.D. (405 nm)) was 1.2.
Work on B6 yielded an OD (O.D. (405 nm)) of 0.9.
Work on B7 yielded an OD (O.D. (405 nm)) of 1.

What follows are binders tested against T2, TP-24 peptide (human) in the same assay as above.
B1 gave an OD (O.D. (405 nm)) of 4.
Work on B2 yielded an OD (O.D. (405 nm)) of 3.8.
Work on B3 yielded an OD (O.D. (405 nm)) of 4.
Binder B4 has an OD (O.D. (405 nm)) of 3.2.
B5 was tested, and the OD (O.D. (405 nm)) was 3.8.
In the case of B6, the OD (O.D. (405 nm)) is reported as 2.9.
B7 gave an OD (O.D. (405 nm)) of 2.5.
